# Results: the supplement of paper PMC12636428
# Test system: Saccharomyces cerevisiae
# Test: transcriptional activation domain activity (GFP:mCherry ratio, weighted mean of sorted bins, harmonized to initial dataset scale) (arbitrary fluorescence ratio units); higher = stronger transcriptional activation
# Conditions: beta-estradiol 1 µM; induction time 4 h
# Outline: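 Sorting into 8 bins by GFP:mCherry ratio followed a 4-hour hold at 30 °C after cultures were diluted 1:5 into SC with 1 uM beta-estradiol. The yeast diploids carried a GFP reporter and had barcoded protein tiles, fused to an estradiol-inducible synthetic transcription factor, integrated at URA3. Barcodes were then sequenced, and tiles with under 50 reads were removed. Activation activity is the read-weighted mean of bin median fluorescence, averaged across barcodes and linearly mapped onto the initial dataset scale.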
row,Sequence,transcriptional activation domain activity
1,PFLLYTSGFLFMGATEEQMNLLTSAGVSHVSYILLLYSISFLLFLFVCMLLHL,33400
2,PHTYNVILFLVIHDPEADVINRVKAYVTYVLRTMPKQLRLESFEMVFIRVLHL,54600
3,KRKDAAKKKSEREWKDRVKGVEKAGRDRQKRREENIRKRKEEKGRGKGKKGKG,6830
4,HFAGLVILGVFLMFINAIVLWPILKSFHDCKHLIKVWFFWMIYCLLFVLYIFC,72600
5,MRTHVLSMHSALLLLHCLRAVWLAPVSRPRQCLTSPAFCSSTRLAIILGGVRH,77900
6,MFIFLFFIHLLSHLCFILILILLFSILLFYVPVICLSTFFILFYHHHLLCTHQ,32200
7,MVGLVGFWVLFLFFLCPFLFSCPLPLPPLRPSLYIFQISYGSFFSCFSFLFFS,63800
8,RRRLNYISTRGLPHFFVLLFLIGLLILIVAMRVCLHILSKSSPLFFFLLILGC,38500
9,FSLSLHICFIFSRLIMLHCIFSLLKMIPFCAKFFCFFLFLFLFSPFLLYILFV,54000
10,MGSCNLPFGHISLARGTLVLIRGWSFFLASQPPYGFIRWILFRSSFYFLCSWR,55900
11,MRWFFLLFWVFLSFFLSLQFFSILSFVCGSLACSISLLCRFSLRGAGFCWLGG,47600
12,AAKALCKLQEAILKTYGMPGLLCMLRGISFHIYAVLTCTMLHLVAITCPDPDI,32900
13,MILMIFTYLLLTIPVVVGLIVASLLHFNFIHLNVLYACSLTSLQLINPCMVLF,50000
14,MTQLYPFFLLFFAGLTMLLLLNHTFLPRVSVKSVKSLFRCNVRGFGTFFLFFL,43800
15,RQTEKPLRSVYCYLIWGEIFVCLVFSIICWCHLYGLFGGSFEFYFMILTLWAL,33000
16,RTTALGVWFLSIQFFWYALYGALYIWFFFMPWEKLSVLLAFDYFMRLLLCFMF,45700
17,MPNCLNIRFFLFFLLKFLYAPLSFLLFPYPSHAYLFFHVLLLINCLFVDVIPV,54600
18,YHTRNRLLLLCAQAHELAVLGVRELARCLRYLPKVHYMPVHWSTIFTWAEFCA,75600
19,TIVLEELRRASYWGRPSLERSWLLLDMTIKSFTGFIRLLDGDLARTICLFYLV,76100
20,LFCFLHYNLLPLPLLLYHLLLAHHILLQLNLDPFLPLLPLLPFLPLLFLLCHL,36000
21,AAPAAADPTPKKRGRPPRVSGAAEVAAAPEPAAEQPKKGRGRKAAEPAPEPVV,23100
22,AAEVKQAKEETGEKAQKKEKKEKEKKAEAAEGGKKKEKAAGGGKPAAEEAAGE,24500
23,WRVLSVFAVFNLGPYVFSLILYSSNAFLYTQWLSFTAVCLISLANVILFRFLL,43700
24,MGNFLYGFCVIFPYNLVYIIICYFGGITQVVNAGFGYMLLLIVLWTHGQLCLS,38600
25,FYLSPVMPLFPPLLKLLREYLSDPLYKDFVSAIYLWVRSVELHHMSTLCIALL,68900

row,Sequence,transcriptional activation domain activity
1,MTWFTATLTVLYHLTHPIITIFRWLLLPLTPFYHLFSYIFSTLFLLPSLYIYF,53100
2,YIAPCGSWTPYMNLMLGGTVCIFIGFDVFSPFSYRGFITNYFGLFWFCIMFIF,53600
3,ATADRDGEREAQEVVATTVVHCHGLFGKTYISIIRAFHVLIVKHSLARLPKKI,60700
4,TVQLLKLFCAFSSLSSILIALLLQTPYYLATTWGTLLRRYIIFFSFPLINSIS,54200
5,TLHIVLVSYGMYFYLILNFANIAALLSPSWAFLVQVYLTCISDTVVRSVFFSR,69200
6,TSTKKTTTTKKATSTKSATATSSCTKYTVKKGDTCSSIASKVGGTTAAKIISK,34000
7,MLPHCIVIIGILFSLLSDVYLYLESSLIHKVHLSSIPGTLLWHPAFFLCILCK,55800
8,SGLVIIFFMITRYFTATAEHLDHLSRCKVHNVPPYSYVFWICILGLELLLCSL,48600
9,RQYRKRKAPAPAEGEENGEVAPAAPKPKRQRKKKPAPEEGAENTDGTAAAPKP,47000
10,KSKKRRRDDGSSDTADSDGNRGRSTGKKRQRSRRGSDDNDSEADARKRSRKRR,23600
11,LIFTSVHFLVFNIGDLLGRYLCLVPQLLLWDASKLLTLSLLRTFFIPLFLACN,38500
12,GSTQAVDLIAYGGYKFVGVITTLISGFEFLHLGRSIYTMVFLYSFLSNAFFLL,63600
13,SLDLEILEELEKLISAQEFSRNFTEDVDESLQSEIDLMNYDNEALNQLMAIDL,137000
14,QYETPAPKDFLDDFVSLTDFFTFFDDPVDLYDVGSFAFQQPHSMNIDFDPAML,152000
15,RCKHSDCQELSPFASVFDLIDHYDHTHAFIPETLVKYSYIHLYKPSVWDLFEY,157000
16,VPGEVTDAEANGEVKAEDADGAEKTKPKKKKKSKAAKAKAKAEGAVEGATAAV,52900
17,LEDNAAPASAPAAEEKPVEKAPEEKPEKKEEPQKEEPKKEDAKQAAPKSGASQ,46100
18,EDEQPAAPADGRKKTVTKGADKAGLGGTPVRKNATTAGRGRKPATAKKGASQP,32300
19,AKEERKAKKKAEKEKAAVAGDAMEVDDSADKKEKKEKKRKRRESEAAGAVKVE,13300
20,GLKLSPSSSGLLSTNESNAIEQFLDNLISQDMMSSNASMNSESHLHIRSPKKQ,68400
21,AFMVSRMVILPFVYSLPVLYDILRPFTAHFLRPKFTLTFLWTHFDLITRVFFL,53400
22,DGSIMEINGIPLSMLGETGSVKFQSLFANTSNSNDYNNNRTLLDASNDISIPS,61900
23,HHLHAFLLGLGFLFSLLICVSSSCLVSSSLLRLLLLLPRFARWIRFLLYILLL,64400
24,IINHLIILYLNRHICVMGLLHVPTFLEYYNSLDDPLNDAMVLAVCIDALVNLR,42700
25,MQCIFVHILLVFIINTFYLVHRLFSSSFLSSFTLFCFLYTHYSFLFFRLIHIS,69500

row,Sequence,transcriptional activation domain activity
1,RKPEAAAEKTAEAPEATGGEGTRRRASGRGRGRGRNGRGGRSGRAEGEEKKDE,31500
2,RWCARCMLLTATIHMGYFFSAWAPYDYIGYQLKNNKIVWKGLAAWCTLVWIVF,47700
3,MAHRFWTLQLFGNIYIIQFLGCIGFGLSLWILMHLINMIEVRNQTIQLSMLFA,62800
4,AAAPAPEPAPKKGRPGRKPAAKSEPEAVEEKTEDAPKKRGRRSTLIPEPVEET,< 6570
5,GAKGKGAEKGKSKQAEQGDGEDGGSEAEGGKRKRAARSKAKTKGKAGGAADGG,23300
6,MTNRQRVGHKKSRHGCIRCKARRVKCDEQRPCSNCVRHRTPCSLSQEPLAAAL,45200
7,KTKEGAAKNTKKSGERGKEKGLAGAKSKKSPINNSVKGKKSPSTKKTVKKAGK,31600
8,MSENVDPPSPHDKSEAPTKRGRGRPKGSKNKSAAAGAVEQEDPAPVIPRKRRL,36300
9,AIENGGASDGEPKKRVRKRGGRKNKARRDSAAAAAAAAAAAAAGGQSSAALAP,< 6570
10,MFIFFKILILILLINIISITSFRLGAMLHYCIGHWDCMGNYLDCVFRLGFLFI,59000
11,DFFLGERDLLQETVSEEWLQFFDDGDLDQILDFLIFFKNPESLHPPSSLVDFI,158000
12,MCCAECCLSSLVSFVSFFSRSLHSLTIRGFFLFPGTFHVILFLFFRFFIFFFH,47400
13,KWVLSILEFFVVHGFFSVTRKNAKSSLQAIHHVPNPKFSDTMKQRCRDRLFTC,51700
14,SHQVLSCLAIFVFPRLAFITLSDNLLILSLRSMMSDFVFLMLLGAWCFLGFLY,55200
15,IPHGKVGDIFLLFEFSYPIISTIIILFYYYYFYYLLSLHILYFFYYSRCWLLV,42300
16,PIEYNTWLIFRQFVDIILLNDFVAYCMFAFSHFRVPNNLSITMHLLRWICGLA,42000
17,EKLVEEVQETPKDKKKRKRDVEAEDVEASAKSEKKLKKKKSKSSAEEAAPADA,30900
18,RAARARATPARPRPRASASRARGACRASTRGCRRRRSSSSSSRAGARMRATSA,58600
19,TLHHKHVVLWNTSRQVATEVIRLPFSCSGKMLCLLLLPEAEDGLKRVHVVALS,25600
20,MTEDEGKPRRKRARLACTACNARRVKCNVTESRPCHNCIAGNVLCETVPSRRG,36100
21,DRMRENGLLSLSDLREYFVCWWRFEKMYRTLIIAETWMDLQAYKVKTLAWLHG,63200
22,ENNVPLLERFREFPWLLSDLIFPFMMEYMLVWYLIWETILNILAELTYFADRS,27300
23,LIAGWCCLLSASCGIFYCIFRAIAIYVPEFNCRVVLWCFAILKVISILCHAAV,32700
24,AQSSPVRASPHPADSPSKPAAKPVSKPATAAPPAASKPTTAAAPKAAAAKPVS,27200
